Test results from patent publication CN1420129A (ZHONGXIN GUOJIAN PHARMACEUTICA, dated 2003).
Where two headings read alike, the source gives them in different places.

T1: CD20 (on CD20+ B lymphocytes / human B lymphoma cell line DHL-4) (human, UniProt P11836 1-297)
T1 sequence (looked up): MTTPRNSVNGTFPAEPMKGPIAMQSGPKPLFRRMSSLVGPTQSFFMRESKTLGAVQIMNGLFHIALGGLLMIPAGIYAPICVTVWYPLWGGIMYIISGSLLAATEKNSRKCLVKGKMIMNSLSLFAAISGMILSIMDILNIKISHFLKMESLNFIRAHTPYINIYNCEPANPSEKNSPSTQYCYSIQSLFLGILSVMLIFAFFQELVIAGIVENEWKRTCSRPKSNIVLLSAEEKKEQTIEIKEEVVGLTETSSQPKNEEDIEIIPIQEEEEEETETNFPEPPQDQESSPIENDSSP


Tests used:
Experiment in all cases: cell-based or functional assay
[1] = biological target: CD20 (on CD20+ B lymphocytes / human B lymphoma cell line DHL-4) (human) (UniProt P11836)
[2] = biological target: CD20 (on CD20+ B lymphocytes / human B lymphoma cell line DHL-4) (human) (UniProt P11836); remark: listed apart in the source
[3] = biological target: T1, CD20 (on CD20+ B lymphocytes / human B …)

Row | Molecule | 存活细胞% (DHL-4 CD20+ cells, cell count and MTT, day 5-7) at 1 μg/ml (% surviving cells) [1] | 存活细胞% (DHL-4 CD20+ cells, cell count and MTT, day 5-7) at 10 μg/ml (% surviving cells) [1] | 存活细胞% (DHL-4 CD20+ cells, cell count and MTT, day 5-7) at 100 μg/ml (% surviving cells) [1] | 存活细胞% (DHL-4 CD20+ cells, cell count and MTT, day 5-7) at 1 μg/ml (% surviving cells) [2] | 存活细胞% (DHL-4 CD20+ cells, cell count and MTT, day 5-7) at 10 μg/ml (% surviving cells) [2] | 存活细胞% (DHL-4 CD20+ cells, cell count and MTT, day 5-7) at 100 μg/ml (% surviving cells) [2] | 存活细胞% (DHL-4 CD20+ cells, cell count and MTT, day 5-7) at 1 μg/ml [3] [% surviving cells] | 存活细胞% (DHL-4 CD20+ cells, cell count and MTT, day 5-7) at 10 μg/ml [3] [% surviving cells] | 存活细胞% (DHL-4 CD20+ cells, cell count and MTT, day 5-7) at 100 μg/ml [3] [% surviving cells]
1 | Rituximab (antibody) | 66.7 | 32.1 | 19.4 | 50.3 | 12.6 | 29.4 | – | – | –
2 | 单克隆抗体7D3 (antibody, V domains shown) VH: QAQLQQSGAELVRPGASVKMSCKASGYTFTRYNMHWVKQTPRQGLEWIGYIYPGNGDTNYNQKFKGKATLTVDKSSSTAYMQLSSLTSEDSAVYFCARRTYYSNSYWYFDVWGTGTTVTVSS VL: QIVLTQSPAILSASPGEKVTMTCRASSSVSYMNWYQQKPGSSPKPWIYAPSNLASGVPARFSGSGSGTSYSLTISRVEAEDAATYYCQQWSNNPPTFGAGTKLELKR | – | – | – | – | – | – | 99.6 | 46.5 | 56.7
3 | 嵌合单抗C7D3 (antibody, human IgG1, V domains shown) VH: QAQLQQSGAELVRPGASVKMSCKASGYTFTRYNMHWVKQTPRQGLEWIGYIYPGNGDTNYNQKFKGKATLTVDKSSSTAYMQLSSLTSEDSAVYFCARRTYYSNSYWYFDVWGTGTTVTVSS VL: QIVLTQSPAILSASPGEKVTMTCRASSSVSYMNWYQQKPGSSPKPWIYAPSNLASGVPARFSGSGSGTSYSLTISRVEAEDAATYYCQQWSNNPPTFGAGTKLELKR | – | – | – | – | – | – | 110 | 27.3 | 39.4
